Source: the supplement of paper PMC7125110
± gives the standard error. For some assays here: Fewer inactive variants are shown than the library holds.

B1: glmS ribozyme (parent)
chain: AUAAAAGCGCCAGAACUACAGAAAUGUAGUUGACGAGGAGGAGGUUUAUCGAAUUUUCGGCGGAUGCCUCCAAA

What was measured:
Conditions in all cases: with glucosamine-6-phosphate
glucosamine-6-phosphate [1] = variants of: B1; assay: kcat; higher = faster cleavage; RNA array
How it was run: (§1)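 Glucosamine-6-phosphate in HEPES/KCl/Mg(OAc)2 buffer, at 40 μM to 10 mM, was flowed over barcoded ribozyme variants transcribed in situ by E. coli RNA polymerase on sequenced MiSeq chips. Tracking was through a hybridised Cy3 probe at 37 °C. kobs, kcat and KM came from exponential decay fits and weighted Michaelis–Menten fits of normalised per-tile medians.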

glucosamine-6-phosphate [2] = variants of: B1; assay: self-cleavage kobs at 160 uM GlcN6P; higher = faster cleavage; RNA array
How it was run: as §1

glucosamine-6-phosphate [3] = variants of: B1; assay: self-cleavage kobs at 40 uM GlcN6P; higher = faster cleavage; RNA array
How it was run: as §1

glucosamine-6-phosphate [4] = variants of: B1; assay: self-cleavage kobs at 640 uM GlcN6P; higher = faster cleavage; RNA array
How it was run: as §1

glucosamine-6-phosphate [5] = variants of: B1; assay: KM; higher = weaker cofactor use; RNA array
How it was run: as §1

glucosamine-6-phosphate [6] = variants of: B1; assay: self-cleavage kobs at 10000 uM GlcN6P; higher = faster cleavage; RNA array
How it was run: as §1

glucosamine-6-phosphate [7] = variants of: B1; assay: self-cleavage kobs at 2500 uM GlcN6P; higher = faster cleavage; RNA array
How it was run: as §1

Variant	kcat (glucosamine-6-phosphate [1])	self-cleavage kobs at 160 uM GlcN6P (glucosamine-6-phosphate [2])	self-cleavage kobs at 40 uM GlcN6P (glucosamine-6-phosphate [3])	self-cleavage kobs at 640 uM GlcN6P (glucosamine-6-phosphate [4])	KM (glucosamine-6-phosphate [5])	self-cleavage kobs at 10000 uM GlcN6P (glucosamine-6-phosphate [6])	self-cleavage kobs at 2500 uM GlcN6P (glucosamine-6-phosphate [7])
G38U G66C C71U	1.04e-05 ± 1e-06 s⁻¹						
G13U A48U	< 1e-05 s⁻¹	< 1e-05 s⁻¹					
C10A U57G	< 1e-05 s⁻¹		< 1e-05 s⁻¹				
A14G U31A U57A C71G	2.93e-05 ± 8.2e-06 s⁻¹						
A14U G62A C70G	5.52e-05 ± 1.4e-05 s⁻¹			5.47e-05 ± 2e-05 s⁻¹			
A15U G44A	3.69e-05 ± 5.2e-07 s⁻¹				2790 ± 140 µM	2.88e-05 ± 1.1e-05 s⁻¹	
U31C C58U	2.26e-05 ± 7.2e-06 s⁻¹						2.64e-05 ± 1.3e-05 s⁻¹
A42G C70A	0.000182 ± 4.2e-05 s⁻¹	6.35e-05 ± 1.1e-05 s⁻¹	4.72e-05 ± 8.8e-06 s⁻¹	0.000154 ± 1.6e-05 s⁻¹		0.000155 ± 1.5e-05 s⁻¹	0.000325 ± 3.7e-05 s⁻¹
G32C C61G	< 1e-05 s⁻¹		< 1e-05 s⁻¹	< 1e-05 s⁻¹			
C16U G32A A33G C58U C70G	3.69e-05 ± 8.5e-06 s⁻¹						
A12G C70G	0.000171 ± 1.5e-05 s⁻¹			7.9e-05 ± 1e-05 s⁻¹	856 ± 240 µM	0.000166 ± 1.6e-05 s⁻¹	0.000109 ± 1.6e-05 s⁻¹
U30C U69C	0.00014 ± 1.4e-05 s⁻¹	3.85e-05 ± 1.7e-05 s⁻¹		6.58e-05 ± 1e-05 s⁻¹	591 ± 210 µM	0.000122 ± 1.4e-05 s⁻¹	0.000129 ± 1.3e-05 s⁻¹
G29U U54A C67G	8.75e-05 ± 2.6e-05 s⁻¹	5.68e-05 ± 1.4e-05 s⁻¹		8.37e-05 ± 1.3e-05 s⁻¹		5.17e-05 ± 2e-05 s⁻¹	0.000134 ± 2.5e-05 s⁻¹
A6U A52G	< 1e-05 s⁻¹	< 1e-05 s⁻¹		< 1e-05 s⁻¹			
C16G U54A	0.00588 ± 0.0013 s⁻¹	0.000487 ± 0.00011 s⁻¹	0.000135 ± 1.8e-05 s⁻¹	0.00144 ± 0.00019 s⁻¹	1860 ± 560 µM	0.00601 ± 0.00089 s⁻¹	0.0024 ± 0.00062 s⁻¹
A12U A33C	0.00204 ± 0.00049 s⁻¹	2.87e-05 ± 1.3e-05 s⁻¹		0.000178 ± 3.4e-05 s⁻¹	7810 ± 2600 µM	0.00113 ± 0.00019 s⁻¹	0.000501 ± 9.3e-05 s⁻¹
G32A U65A	0.000307 ± 0.0001 s⁻¹			5.66e-05 ± 1.2e-05 s⁻¹		0.000243 ± 4.4e-05 s⁻¹	0.000104 ± 1.4e-05 s⁻¹
C11A A14C	6.31e-05 ± 3.4e-06 s⁻¹				2820 ± 410 µM	4.9e-05 ± 1.5e-05 s⁻¹	3.05e-05 ± 1.3e-05 s⁻¹
A12C G62U C70G	2.02e-05 ± 4.5e-06 s⁻¹						
G13A A15U	0.00015 ± 1.5e-05 s⁻¹				3530 ± 1100 µM	0.000111 ± 1.5e-05 s⁻¹	6.03e-05 ± 2.6e-05 s⁻¹
